Consider 3 molecules from US20230304019, “DNA APTAMER, PHARMACEUTICAL COMPOSITION COMPRISING SAME, METHOD FOR INHIBITING CATALYTIC ABILITY OF TXNDC5, AND METHOD FOR PREVENTING OR TREATING ORGAN FIBROSIS” (CHI-HUA FUNDATION, published 2023).

Series [1] concerns the target T1, TXNDC5 (Mus musculus, UniProt Q91W90 Q91W90:34-417). Kind of series: magnetic nanoparticle (MARAS) pulldown with q-PCR, nonlinear regression. Conditions: tags: Ni-column purified, baculovirus/insect cells, Sino Biological; double stem-loop (predicted). The procedure: (§1) For further determining the binding efficiency of TXNDC5-targeting aptamers, the Kd values, as the indicator of aptamer and target molecule interaction, of aptamer-3 and aptamer-7 are measured by q-PCR, and the results were fitted with nonlinear regression. The method of measuring the Kd values of aptamer-3 and aptamer-7 is illustrated as following.
(§2) Aptamer-3 and aptamer-7 are isolated and progressively diluted in series from 100 to 3.125 nM, aptamer-3 and aptamer-7 are folded in the binding buffer as the procedures mentioned above. Equal amounts of either mouse-MNPs or humane-MNPs are mixed with aptamer-3 and aptamer-7 and followed the MARAS and q-PCR procedure as described above to specifically bind to aptamer-3 and aptamer-7. The Kd values of aptamer-3 and aptamer-7 are measured by fitting the results of each Ct value from q-PCR and the concentrations in a nonlinear regression through PRISM 8 (Graphpad). Each result is performed in duplicate to reduce the errors.

The target of series [2] is T2, TXNDC5 (wild type) (Homo sapiens, UniProt Q8NBS9 Q8NBS9:33-432). The series can be described thus: inhibition; insulin reduction turbidity assay, 0.5 mM DTT, potassium phosphate, EDTA, pH 7. Conditions: tags: Ni-column purified, baculovirus/insect cells, Sino Biological. The procedure: An insulin/assay buffer is prepared by adding 1.6 mM insulin (which is prepared by dissolving insulin in 0.1 N HCl) with the assay buffer consisted of 100 mM potassium phosphate and 0.2 mM EDTA (pH 7). The volume of each insulin/assay buffer is 15 μl, wherein the volume of insulin is 6 μl and the volume of assay buffer is 9 μl.
T2 sequence (Q8NBS9 33-432, one chain of several): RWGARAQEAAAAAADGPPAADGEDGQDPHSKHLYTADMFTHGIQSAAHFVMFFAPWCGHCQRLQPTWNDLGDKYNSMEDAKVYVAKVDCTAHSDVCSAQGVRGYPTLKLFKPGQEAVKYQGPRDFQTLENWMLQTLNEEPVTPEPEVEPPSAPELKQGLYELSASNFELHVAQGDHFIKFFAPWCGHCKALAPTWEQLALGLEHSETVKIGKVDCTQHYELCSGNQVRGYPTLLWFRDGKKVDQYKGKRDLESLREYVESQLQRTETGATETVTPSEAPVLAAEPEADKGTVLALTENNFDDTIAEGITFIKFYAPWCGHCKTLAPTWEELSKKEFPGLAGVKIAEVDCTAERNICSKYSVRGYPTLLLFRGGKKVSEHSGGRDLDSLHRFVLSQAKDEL
Each of the above mixtures of aptamers (Ap-3, Ap7 and Ap-11) with different concentrations and human wild type TXNDC5 is added with a corresponding insulin/assay buffer separately. That is, aptamer-3, aptamer-7 and aptamer-11 have seven experimental group samples (with different concentrations, 7.8125 μM, 15.625 μM, 31.25 μm, 62.5 μM, 125 μM, 250 μM and 500 μM) separately. An insulin/assay buffer which is not added with the above mixture of aptamers and human wild type TXNDC5 is prepared as the control group sample.

In series [3] the target is T1, TXNDC5. The series can be described thus: q-PCR of eluted aptamer; specific and strong binding to mouse TXNDC5. Conditions: tags: Ni-column purified, baculovirus/insect cells, Sino Biological; single stem-loop (predicted). The procedure: The 100 nM of aptamer-3, aptamer-7 and aptamer-11 are folded in the binding buffer via the procedures as mentioned above. 20 nM of Aptamer-3, aptamer-7 and aptamer-11 are taken individually and hybridized with positive-(mouse and human TXNDC5, 5 μl) and negative-(serum and catalytic-death TXNDC5, 5 μl) MNPs, and the hybridized aptamers-MNPs are processed according to the above MARAS procedures. Aptamer-3, aptamer-7 and aptamer-11 bound with MNPs are collected and eluted by heating to 95° C. for 5 min in 100 μl ddH₂O.
The amounts of aptamer-3, aptamer-7 and aptamer-11 are detected by q-PCR and the relative expression levels are utilized as outcomes. The process of detecting the amounts of aptamer-3, aptamer-7 and aptamer-11 by q-PCR is set forth as following. To measure the relative expression of aptamer-3, aptamer-7 and aptamer-11, the q-PCR is performed in 96-well plates with BioRad CFX Connect system. The fivefold-diluted eluted aptamer-3, aptamer-7 and aptamer-11 are individually dissolved in test tubes filled with 100 μl of RNase-free water. […]

Series [4] deals with T2, TXNDC5 (wild type). The series can be described thus: magnetic nanoparticle (MARAS) pulldown with q-PCR, nonlinear regression. Conditions: tags: Ni-column purified, baculovirus/insect cells, Sino Biological; double stem-loop (predicted). The procedure:
as §1, §2

T1 sequence (Q91W90 34-417, one chain of several): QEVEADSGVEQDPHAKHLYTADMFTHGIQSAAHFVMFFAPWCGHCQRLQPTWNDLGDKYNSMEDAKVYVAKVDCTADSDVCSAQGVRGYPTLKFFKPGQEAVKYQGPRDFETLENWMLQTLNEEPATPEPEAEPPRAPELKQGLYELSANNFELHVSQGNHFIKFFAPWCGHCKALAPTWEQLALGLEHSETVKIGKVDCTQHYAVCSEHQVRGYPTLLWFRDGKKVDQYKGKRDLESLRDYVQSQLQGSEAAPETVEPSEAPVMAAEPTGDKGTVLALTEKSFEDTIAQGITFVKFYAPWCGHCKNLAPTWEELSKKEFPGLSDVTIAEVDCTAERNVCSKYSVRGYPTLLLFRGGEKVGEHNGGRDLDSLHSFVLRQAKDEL

B1: Aptamer-3 (ssDNA)
DNA: AGCAGCACAGAGGTCAATGTAATCTTTATCTATCGGCGTGCTACCGTGAA
As to B1, the Kd in the series with TXNDC5 [1] is 0.0075 µM. Besides, the IC50 with TXNDC5 (wild type) [2] (double stem-loop (predicted)) is 214 µM.

B2: Aptamer-11 (ssDNA)
DNA: AGCAGCACAGAGGTCTCTTATTACTCTCCCGTACCGCGTGCTACCGTGAA
With B2, the binding result with TXNDC5 [3] was “binds”. Also, the concentration for half-maximal inhibition (IC50) in the series with TXNDC5 (wild type) [2] (single stem-loop (predicted)) was 263 µM.

B3: Aptamer-7 (ssDNA)
DNA: AGCAGCACAGAGGTCAGGAACCTTATGCCTATGTAGCGTGCTACCGTGAA
B3: in the series with TXNDC5 (wild type) [4], the Kd was 0.0169 µM. The IC50 with TXNDC5 (wild type) [2] (double stem-loop (predicted)) was 241 µM.
